# Values joined by “and” are separate entries in the source; they are usually repeats but may differ in a detail not shown here. Identical values can stand only once.
# Key:
# [1] = target: dAb, a domain antibody comprising the variable light chain; experiment: frontal analysis on a membrane disc, run 1
# [2] = target: dAb, a domain antibody comprising the variable light chain; experiment: frontal analysis on a membrane disc, run 2
# Trastuzumab [3] = experiment: frontal analysis on a membrane disc, load at 10 mL/min, run 1
# Trastuzumab [4] = experiment: frontal analysis on a membrane disc, load at 10 mL/min, run 3
# Trastuzumab [5] = experiment: frontal analysis on a membrane disc, blank run between runs, run 1
# Trastuzumab [6] = experiment: frontal analysis on a membrane disc, blank run between runs, run 2
# Trastuzumab [7] = experiment: frontal analysis on a membrane disc, blank run between runs, average
# [8] = target: dAb, a domain antibody comprising the variable light chain; experiment: frontal analysis on a membrane disc, run 1, average of Test 1 and Test 2
# [9] = target: dAb, a domain antibody comprising the variable light chain; experiment: frontal analysis on a membrane disc, run 2, average of Test 1 and Test 2
# Trastuzumab [10] = experiment: frontal analysis on a membrane disc, load at 10 mL/min, average of runs 1-4
# [11] = target: dAb, a domain antibody comprising the variable light chain; experiment: frontal analysis on a membrane disc, re-run after CIP with 0.1 M NaOH, average; conditions: test 1, without preceding CIP wash
# Trastuzumab [12] = experiment: frontal analysis on a membrane disc, load at 10 mL/min, run 2 (no blank run before)
# Trastuzumab [13] = experiment: frontal analysis on a membrane disc, load at 10 mL/min, run 4 (no blank run before)
substance,measurement,setting,value
kappa light chain-binding ligand (multimer of alkali-stabilized Finegoldia magna Protein L domains) covalently coupled to a convection-based fibrous support (prototype separation matrix) (designed binder),Qb10% (dynamic binding capacity at 10% breakthrough),[1],12.8 mg/mL and 13 mg/mL
same,Qb10% (dynamic binding capacity at 10% breakthrough),[2],9.41 mg/mL and 10.5 mg/mL
same,Qb10% (dynamic binding capacity at 10% breakthrough),Trastuzumab [3],17.3 mg/mL and 22 mg/mL
same,Qb10% (dynamic binding capacity at 10% breakthrough),Trastuzumab [4],15.9 mg/mL and 21.8 mg/mL
same,Qb10% (dynamic binding capacity at 10% breakthrough),Trastuzumab [5],15.4 mg/mL and 21.4 mg/mL
same,Qb10% (dynamic binding capacity at 10% breakthrough),Trastuzumab [6],15.5 mg/mL and 21.4 mg/mL
same,Qb10% (average of runs),Trastuzumab [7],15.4 mg/mL and 21.4 mg/mL
same,Average of Qb10%,[8],12.9 mg/mL
same,Average of Qb10%,[9],9.98 mg/mL
same,Qb10% (average of runs),Trastuzumab [10],19.6 mg/mL and 14.1 mg/mL
same,Qb10% (average of runs),[11],10.2 mg/mL
same,Qb10% (dynamic binding capacity at 10% breakthrough),Trastuzumab [12],12.3 mg/mL and 17.8 mg/mL
same,Qb10% (dynamic binding capacity at 10% breakthrough),Trastuzumab [13],10.8 mg/mL and 16.8 mg/mL

# — US20260258092A1
